Where no end group is shown, it is not given here.
What was measured:
[1] = molecular target: T1, vinculin Vd1 (residues 1–259) (Gallus gallus, UniProt P12003); test: Fluorescence polarisation assay, fluorescein-labelled peptides titrated with vinculin head Vd1; assay type: binding, Chicken; settings: FP; negative control; Kd ND in Fig. 1D
T1 construct: Chicken vinculin Vd1 (residues 1–259); 6xHis (cleaved yes); made in house; host or cells: E. coli BL21 (DE3)
Procedure: Peptides were coupled to a thiol‐reactive fluorescein dye via the terminal cysteine. Stock solutions were made in phosphate‐buffered saline (PBS; 137 mM NaCl, 27 mM KCl, 100 mM Na2HPO4, 18 mM KH2PO4, pH 7.4), 1 mM TCEP and 0.05% Triton X‐100. Excess dye was removed using a PD‐10 desalting column (GE Healthcare, Chicago, IL, USA). Titrations were performed in PBS using a constant 1 μM concentration of fluorescein‐coupled peptide with increasing concentration of protein; final volume 100 μL in a black 96‐well plate. Fluorescent polarisation (FP) measurements were recorded on a BMGLabTech CLARIOstar plate reader at room temperature and analysed using GraphPad Prism. K d values were calculated with nonlinear curve fitting using a one‐site total binding model.
In this assay, synthetic VBS peptides (Materials and methods) were fluorescently labelled with fluorescein and titrated against an increasing concentration of Vd1.

[2] = molecular target: T2, FAK‐FAT domain (residues 941–1090) (Mus musculus, UniProt P34152); test: Fluorescence polarisation assay, fluorescein-labelled LD-motif peptides titrated with FAK-FAT domain; assay type: binding
T2 construct: the FAK‐FAT domain (residues 941–1090); 6xHis (cleaved yes); made in house; host or cells: E. coli BL21 (DE3)
T2 sequence (P34152 904-1052 limits assumed): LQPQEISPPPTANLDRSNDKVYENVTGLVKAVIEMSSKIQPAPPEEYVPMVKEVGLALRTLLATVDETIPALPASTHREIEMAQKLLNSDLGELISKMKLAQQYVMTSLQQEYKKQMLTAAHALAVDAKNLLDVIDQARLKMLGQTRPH
From the text: Chicken vinculin Vd1 (residues 1–259), murine talin R10 (residues 1815–1973), and the FAK‐FAT domain (residues 941–1090) were cloned into a pET151 vector (Invitrogen) and expressed in E .coli BL21 (DE3) cells cultured in LB. Standard nickel‐affinity chromatography was used to purify the His‐tagged recombinant proteins as described previously 15. The proteins were further purified using anion‐exchange chromatography following cleavage of the 6xHis‐tag with TEV protease. Protein concentrations were determined using the respective extinction coefficients at 280 nm.
Peptides with either a C‐ or N‐terminal cysteine were synthesised by GLBiochem (China).
Peptides were coupled to a thiol‐reactive fluorescein dye via the terminal cysteine. Stock solutions were made in phosphate‐buffered saline (PBS; 137 mM NaCl, […], […], […], pH 7.4), 1 mM TCEP and 0.05% Triton X‐100. Excess dye was removed using a PD‐10 desalting column (GE Healthcare, Chicago, IL, USA). […] Fluorescent polarisation (FP) measurements were recorded on a BMGLabTech CLARIOstar plate reader at room temperature and analysed using GraphPad Prism. K d values were calculated with nonlinear curve fitting using a one‐site total binding model. […]

[3] = molecular target: FAK‐FAT domain (residues 941–1090); test: fluorescence polarisation; 1 μM fluorescein-coupled peptide constant, increasing concentration of protein; PBS, room temperature, 96-well plate; one-site total binding fit; triplicate
[4] = molecular target: T3, Chicken vinculin Vd1 (residues 1–259) (chicken, UniProt P12003 1-259); test: SEC-MALS; analytical gel filtration, Superdex-75, 4 °C, 50 mM Tris pH 7.5, 150 mM NaCl, 2 mM DTT; 100 μM of each protein at 1:1 (talin:Vd1), incubated at 37 °C for 30 min; settings: both partners purified
T3 construct: also called vinculin head; vinculin head domain
T3 sequence (looked up): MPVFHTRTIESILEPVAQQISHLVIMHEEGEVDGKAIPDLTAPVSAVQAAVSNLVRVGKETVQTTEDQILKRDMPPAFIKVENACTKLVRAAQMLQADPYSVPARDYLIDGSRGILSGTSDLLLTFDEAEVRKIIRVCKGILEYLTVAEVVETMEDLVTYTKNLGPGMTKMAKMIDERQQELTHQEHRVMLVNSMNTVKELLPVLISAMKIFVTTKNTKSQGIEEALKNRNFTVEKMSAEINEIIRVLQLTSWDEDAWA

[5] = molecular target: T3, Chicken vinculin Vd1 (residues 1–259); test: fluorescence polarisation; 1 μM fluorescein-coupled peptide constant, increasing concentration of protein; PBS, room temperature, 96-well plate; one-site total binding fit; triplicate; settings: both partners purified

Molecule: EGAEGLEHLLPQLRSHLDDAFDQQGN‐C [TarP LD, synthetic LD-motif peptide of C. caviae TarP, residues 655–680, with C-terminal cysteine]
- Interaction with Vd1 (in words) [1]: does not interact with Vd1
- Binding to FAK-FAT by FP (in words) ([2]; fluorescein-labelled peptide, Kd ND in Fig. 4B): no increase in polarisation

Molecule: CC(C)C[C@H](NC(=O)[C@H](CCC(=O)O)NC(=O)[C@H](CC(C)C)NC(=O)[C@H](CC(C)C)NC(=O)[C@H](CC(C)C)NC(=O)[C@H](CCCNC(=N)N)NC(=O)[C@H](CC(=O)O)NC(=O)[C@H](CC(C)C)NC(=O)[C@H](CCC(=O)O)NC(=O)[C@H](CO)NC(=O)[C@H](CC(C)C)NC(=O)[C@H](CC(N)=O)NC(=O)[C@@H](N)CS)C(=O)N[C@@H](CC(N)=O)C(=O)O [Paxillin LD2, reference compound]
- Kd ([2]; FP, 1 μM fluorescein-coupled peptide, increasing FAK-FAT, PBS, room temperature, ± SE, read-out: Dissociation constant Kd for binding to FAK-FAT): 9.01 µM

Molecule: CNLSELDRLLLELN (fluorescein (thiol-reactive dye) coupled via the N-terminal cysteine) [Pax_LD2 peptide (paxillin residues 141–153) with N-terminal cysteine, fluorescein-coupled]
- Kd [3]: 9 µM

B1: murine talin R10 (residues 1815–1973) (domain or fragment, UniProt P26039 1815-1973, looked up)
chain: NEAASAAGVVGGMVDSITQAINQLDEGPMGDPEGSFVDYQTTMVRTAKAIAVTVQEMVTKSNTSPEELGPLANQLTSDYGRLASQAKPAAVAAENEEIGAHIKHRVQELGHGCSALVTKAGALQCSPSDVYTKKELIECARRVSEKVSHVLAALQAGNR
notes: also called talin rod domain R10
- stoichiometry N [4]: 1

B2: mTal1_VBS36 peptide (talin residues 1622–1656) with N-terminal cysteine, fluorescein-coupled (peptide)
peptide: C(fluorescein)VNPRDPPRWSVLAGHSRTVSDSIKKLITSMRDKAP
notes: also called talin VBS36; source: synthetic peptide (GLBiochem)
- Kd [5]: 1.03 µM

Molecule: LLEAARNTTTMLSKTLSKVC(fluorescein) (source: synthetic peptide (GLBiochem)) [TarP_VBS1 peptide (C. caviae residues 850–868) with C-terminal cysteine, fluorescein-coupled]
- Kd [5]: 1.29 µM

From article PMC6001692, “Chlamydial virulence factor TarP mimics talin to disrupt the talin‐vinculin complex” (Febs Letters, 2018)
